Measurements published in US7144862B2, “Orally administered peptides to ameliorate atherosclerosis” (The Regents of the University of California, priority 2000, dated 2006).
Non-standard residues stand in square brackets, D forms with d. Residues, ends and D or L forms follow the SMILES beside them.

B1: Mouse apo A-I: mouse apo A-I isolated from the plasma of C57BL/6J mice (protein, UniProt Q00623 25-264, looked up)
Apolipoprotein A-I: DEPQSQWDKVKDFANVYVDAVKDSGRDYVSQFESSSLGQQLNLNLLENWDTLGSTVSQLQERLGPLTRDFWDNLEKETDWVRQEMNKDLEEVKQKVQPYLDEFQKKWKEDVELYRQKVAPLGAELQESARQKLQELQGRLSPVAEEFRDRMRTHVDSLRTQLAPHSEQMRESLAQRLAELKSNPTLNEYHTRAKTHLKTLGEKARPALEDLRHSLMPMLETLKTQVQSVIDKASETLTAQ

How the values were obtained:
[1] = system: Human aortic wall cocultures; assay: LDL plus peptide in vitro in human aortic wall cocultures, monocyte chemotactic activity (Example 2); type: cell-based; conditions: control LDL 250 μg/ml plus varying amounts of peptide
Experimental: Human aortic wall cocultures were incubated with medium alone (LDL, NO CELLS or CELLS, NO LDL, see FIG. 9), control LDL from normal subjects at 250 μg/ml (LDL) and LDL plus control HDL from normal subjects at 350 μg/ml (+HDL). Other cocultures were incubated With the control LDL together with varying amounts (micrograms shown on the abscissa) of either D-2F, or L-2F (third panel from the left, 2F) or D-37-pA or L-37pA (last panel on the right, 37pA). The data represent mean±SD of values obtained from quadruplicate cocultures.

[2] = system: red blood cells of LDL receptor deficient mice; assay: In vitro red cell lysis after gavage of D peptides; type: in vivo, mouse; conditions: 100 μg by gavage, blood 17 and 48 hrs later
Experimental: Red cells were separated by centrifugation, were diluted to 10% hematocrit with PBS and incubated at 37° C. with gentle mixing. Aliquots were removed at time points t=0, 2, 6 and 18 hrs, cell pellets spun down and the optical density due to the released hemoglobin determined.

[3] = system: human artery wall cell cocultures; assay: Lipoproteins from mice given peptide by gavage tested in human artery wall cell cocultures (monocyte chemotactic activity); conditions: 100 μg by gavage, LDL receptor-deficient mice, blood 17 hrs later
Experimental: Groups of LDL receptor-deficient mice (n=3) were administered the D-peptides or the saline vehicle by gavage. […] Blood was collected from retroorbital sinus under mild anesthesia 17 hrs later. LDL was isolated from plasma by FPLC. Cocultures of artery wall cells were incubated with medium alone (NO ADDITION), control LDL from normal subjects (LDL), LDL plus control HDL from normal subjects (+HDL). […] The cocultures were incubated for 4 hrs at 37° C. in the presence of 10% LPDS. The supernatants were then discarded, the cocultures were washed and incubated with culture medium without serum or LPDS for an additional 4 hrs. This conditioned medium was collected and analyzed for monocyte chemotactic activity. The values are mean±SD of quadruplicate cocultures.
Blood was collect after 6 hrs, plasma HDL and LDL were isolated by gel filtration (FPLC) and examined in the cocultures. […] Human LDL at 200 μg protein/ml was added to human artery wall cell cocultures together with human HDL (hHDL) at 350 μg protein/ml or mouse HDL (mHDL) at 100 μg cholesterol/ml taken from mice that received saline (Saline Rx) or L-4F (L-4F Rx) or D-4F (D-4F Rx) and monocyte chemotactic activity was determined as described herein. […] On the right, mouse LDL (mLDL) was isolated from mice receiving saline (Saline Rx) or L-4F (L4F Rx) or D-4F (D-4F Rx) and was added at 100 μg cholesterol/ml to the artery wall cell cocultures without HDL and monocyte chemotactic activity determined. Values are mean±SD) for four wells in two independent experiments.
Either saline or 2F synthesized from D amino acids or from L amino acids was instilled in the stomachs of mice by gavage (instillation in the stomach by tube). After gavage the mice were bled and their LDL isolated and added to the human artery wall cell cocultures.
The animals were bled 1.5, 3 or 6 hours later and their HDL, LDL, and VLDL/IDL isolated.
Human aortic endothelial and smooth muscle cells were isolated and cultured as previously described (Id.). Cellular oxidation of LDL in the presence and absence of HDL was determined as described (Id.). Human blood monocytes were isolated after obtaining informed consent and monocyte chemotaxis was determined as described previously^5.

[4] = system: C57BL/6J mice fed an atherogenic diet; assay: Aortic lesion formation, daily intraperitoneal injection for 16 weeks, atherogenic diet; type: in vivo, mouse; conditions: 5F 20 μg or MoAI 50 μg daily i.p.
Experimental: The livers were removed and weighed.
Histological evaluations were performed according to the method of Paigen et al. (Paigen et al. (1990) Arteriosclerosis 10: 316–323) with some modifications. Briefly, hearts were fixed for at least one week in the phosphate-buffered formaldehyde solution. After removing the lower ⅔ of the hearts, the remaining tissue was frozen in OCT medium (Tissue-Tek, Miles Inc., Elkhart, Ind.) and sectioned in a cryostat at −20° C. Alternate 20 μm sections were saved on slides, and observed for the beginning of the aortic root. Sections were then collected for an additional 600 μm, or until the aortic cross-section was rounded and the valve cusps were no longer evident. Slides were stained with Oil Red O, and counterstained with hematoxylin. Stained lesion cross-sectional areas were measured in consecutive slides 80 μm apart by image analysis (SigmaScan Pro, SPSS Scientific, Chicago, Ill.), and the average lesion area was determined for each aortic sinus over the 400 μm length (five slides) providing the greatest mean lesion area.

[5] = Plasma cholesterol lipoprotein profiles (CLiP); type: in vivo, mouse; conditions: 16 weeks atherogenic diet, daily i.p.
Experimental: Plasma cholesterol lipoprotein profiles were measured using our recently-developed CLiP method (Garber et al. (2000) J. Lipid Res. 41:1020–1026). Briefly, 5 to 10 μl of plasma were analyzed using a single Superose 6 (Pharmacia, Piscataway N.J.) column. Immediately following the column, cholesterol reagent was introduced through a mixing tee, and the eluent:reagent mixture entered a post-column reaction coil. Cholesterol content of the eluent mixture was spectrophotometrically detected at 500 nm, and data points were collected into a computer. The resulting profiles were decomposed into component peaks and analyzed for relative area using PeakFit (SPSS Science, Chicago, Ill.); absolute cholesterol values for total cholesterol and each component peak were determined by comparison with a control sample of known values. In some cases fractions were collected to determine distribution of radioactivity. The CLiP method allowed analysis of individual mouse samples, avoiding the use of pooled samples.

[6] = Antibody detection by indirect ELISA after 16 weeks of daily injection; type: in vivo, mouse; conditions: plasma at conclusion of 16-week injection period
Experimental: To determine whether daily injections of peptides elicited any immune response in mice, indirect ELISA titration (Engvall (1980) Meth. Enzymol. 70:419–439) was carried out with plasma taken from mice at the time of organ collection (following sixteen weeks of daily injection). Plates were coated with the injected peptides or MoAI (10 μg/ml). Plates were incubated overnight. After thorough washing with borate buffered saline (pH 8.2) containing 0.05% Tween 20, and blocking with buffer (0.1% gelatin and 0.1% BSA in borate buffer) for 1 h, 200 μl of the diluted mouse plasma (1:100 dilution) samples were serially diluted 1:1 with borate-buffered saline. Biotinylated goat antibody to mouse IgG (0.1 μg/ml) was then added to the wells and the plates were treated with SA-HRP (Streptavidin-horse radish peroxidase) for an hour and developed with ABTS and peroxide as substrate. The plates were incubated overnight at room temperature after every addition of antigen/antibody and washed thoroughly with borate buffered saline (pH 8.2) containing 0.05% Tween 20, and blocked with buffer (0.1% gelatin and 0.1% BSA in borate buffer) for 1 h before the next addition.

[7] = mouse, in vivo
Experimental: The 5F peptide, MoAI, and human apo A-I were labeled with ^125I by the method of Bilheimer et al. (1972) Biochim. Biophys. Acta 260: 212–221. Mice were placed on a modified Thomas-Hartroft atherogenic diet (#TD88051; Teklad, Madison, Wis.) for four weeks at which time daily intraperitoneal injections of peptide or protein dissolved in 200 μl phosphate-buffered saline (PBS) were begun. Animals injected with MoAI or human apo A-I received 50 μg per animal; those injected with 5F received 20 μg. Animals were not fasted for the kinetic studies and blood samples were taken under xylazine:ketamine anesthesia from the retro-orbital sinus at 15, 30, and 45 minutes, and 1, 1.5, 2, 3, 4, 6, 8, 12, and 24 hours following injection. Each animal provided three blood samples at different time points (all retro-orbital and alternating eyes), and at least three samples were collected (from different animals) at each time point. Samples were collected into heparinized capillary tubes, then placed in microcentrifuge tubes; the plasma was separated by centrifugation. Duplicate 10 μl aliquots of each sample were taken for radioactivity determination, using gamma counting (Cobra; Packard Instruments, Downers Grove, Ill.) for 10 minutes per sample. Total plasma volume was calculated as 4.2% body weight. Each sample was expressed as percent of injected CPM in total plasma. Free ^125I was determined by trichloroacetic acid (TCA) precipitation (1 ml of 10% TCA per 10 μl plasma sample). Fitting to the kinetic model was done using all data points, rather than averages at each time point (PKAnalyst, MicroMath Scientific Software, Salt Lake City, Utah).
Treatment groups were compared by two-tailed t-tests or one way analysis of variance (where the data were normally distributed), or by one way analysis of variance on ranks (SigmaStat; SPSS Science, Chicago, Ill.). Kinetics of peptide or protein turnover were analyzed by fitting to a first order one-compartment kinetic model assuming non-equal input and output rates (PKAnalyst; MicroMath Scientific Software, Salt Lake City, Utah).

[8] = Survival, toxicity, body and liver weights after 16 weeks of injection
Experimental: Mice were acquired at six weeks of age, and randomized into groups of 20, except that a negative control group of 10 received no treatments and was given standard rodent chow. At eight weeks of age, the treatment groups were placed on a modified Thomas-Hartroft atherogenic diet (#TD88051; Teklad, Madison, Wis.), and injections were begun. […] Animals were injected intraperitoneally daily for 16 weeks, including weekends and holidays.
At the end of the study (week 16), at the last bleeding, the heart and the liver were excised. […] The livers were removed and weighed.

[9] = after 16 weeks, atherogenic diet, daily i.p., mean ± SEM

Molecule | monocyte chemotactic activity induced by LDL treated with peptide in vitro [1] | red cell lysis (hemolysis) after gavage [2] | resistance of circulating mouse LDL to oxidation (monocyte chemotactic activity) [3] | mean lesion cross-sectional area compared with PBS-injected animals [4] | HDL as percent of total cholesterol [5] | IDL + LDL as percent of total cholesterol [5] | VLDL as percent of total cholesterol [5] | HDL cholesterol ([5]; mean ± SEM) [mg/dL] | IDL + LDL cholesterol ([5]; mean ± SEM) [mg/dL] | TC (total cholesterol) ([5]; mean ± SEM) [mg/dL] | VLDL cholesterol ([5]; mean ± SEM) [mg/dL] | antibodies against the injected material [6] | Max. % in plasma [7] [%] | Time (h) to max. CPM ([7]; ip) [h] | T½ ([7]; ip) [h] | toxicity ([8]; 16 weeks daily i.p. injection) | Body Weight [8, 9] [g] | Liver Weight [8, 9] [g] | Liver: Body (percentage) [8, 9] [%] | mice died from unexplained causes ([8]; during the prolonged diet studies, groups of 20)
CC(C)C[C@@H](NC(=O)[C@@H](Cc1c[nH]c2ccccc12)NC(=O)[C@H](N)CC(=O)O)C(=O)N[C@H](CCCCN)C(=O)N[C@H](C)C(=O)N[C@H](Cc1ccccc1)C(=O)N[C@H](Cc1ccc(O)cc1)C(=O)N[C@H](CC(=O)O)C(=O)N[C@H](CCCCN)C(=O)N[C@@H](C(=O)N[C@H](C)C(=O)N[C@H](CCC(=O)O)C(=O)N[C@H](CCCCN)C(=O)N[C@H](CC(C)C)C(=O)N[C@H](CCCCN)C(=O)N[C@H](CCC(=O)O)C(=O)N[C@H](C)C(=O)N[C@H](Cc1ccccc1)C(=O)N1CCC[C@@H]1C(=O)N[C@H](CC(=O)O)C(=O)N[C@H](Cc1c[nH]c2ccccc12)C(=O)N[C@H](CC(C)C)C(=O)N[C@H](CCCCN)C(=O)N[C@H](C)C(=O)N[C@H](Cc1ccccc1)C(=O)N[C@H](Cc1ccc(O)cc1)C(=O)N[C@H](CC(=O)O)C(=O)N[C@H](CCCCN)C(=O)N[C@@H](C(=O)N[C@H](C)C(=O)N[C@H](CCC(=O)O)C(=O)N[C@H](CCCCN)C(=O)N[C@H](CC(C)C)C(=O)N[C@H](CCCCN)C(=O)N[C@H](CCC(=O)O)C(=O)N[C@H](C)C(=O)N[C@H](Cc1ccccc1)C(=O)O)C(C)C)C(C)C [Peptide D-37pA] (H-[dD][dW][dL][dK][dA][dF][dY][dD][dK][dV][dA][dE][dK][dL][dK][dE][dA][dF][dP][dD][dW][dL][dK][dA][dF][dY][dD][dK][dV][dA][dE][dK][dL][dK][dE][dA][dF]-OH) | significantly different from LDL | resistant to hemolysis | resistant to oxidation | – | – | – | – | – | – | – | – | – | – | – | – | – | – | – | – | –
B1 | – | – | – | no difference in lesion area | (9.34 ± 1.19%*) | (42.44 ± 2.46%) | (48.23 ± 2.75%) | 19.50 ± 3.07 | 87.86 ± 8.34 | 207.45 ± 16.94 | 100.08 ± 9.73 | No antibodies were detected | 13.5 | 1.74 | 15.7 | No toxicity | 21.16 ± 0.34 | 1.72 ± 0.04 | 8.15 ± 0.23 | Two
